Reference: US20240092891A1

Target: human CLDN18.1 (human) (UniProt P56856)
Assay: flow cytometry on human CLDN18.1-HEK293 cells, antibody at 100 µg/mL

Chain of human CLDN18.1 (human) (P56856 whole entry): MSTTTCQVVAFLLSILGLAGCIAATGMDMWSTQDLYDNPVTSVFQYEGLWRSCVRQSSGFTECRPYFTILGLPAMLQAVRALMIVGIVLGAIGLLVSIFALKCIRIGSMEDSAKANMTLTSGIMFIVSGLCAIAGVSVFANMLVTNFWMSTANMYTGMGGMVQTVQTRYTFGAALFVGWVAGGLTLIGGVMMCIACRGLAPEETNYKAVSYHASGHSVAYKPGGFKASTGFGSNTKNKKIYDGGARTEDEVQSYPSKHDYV

B1: humanized antibody NA7-S-H2 (Fc fusion, not shown: a dimerising Fc or GST)
chain: EVQLVESGGGLVQPGGSLRLSCAASGSFFRIVAMGWYRQAPGKGRELVATITRGGSTYYADSMKGRSTISRDNAKNTVYLQMNSLKPEDTAVYYCNVRVEVPFMQPNDYWGQGTLVTVSS
positive rate of cell binding: 5.5%
